Data taken from patent US20240026407A1, “MODIFICATION OF SAPONINS” (GLAXOSMITHKLINE BIOLOGICALS SA, priority 2020, published 2024).

Experiments:
Assay type in all cases: biochemical, Quillaja saponaria
[1] = Experiment 6-1: screening of rhamnosidases for derhamnosylation of saponins in treated bark extract (2%), QS-17 2296 to QS-18 2150 (PAR %); settings: TBE 2%, pH 7.5, 30 degC, 18 h; TIC peak area ratio percent of rhamnosylated starting saponin to derhamnosylated product, LCMS/MS; negative controls 4.876, 5.225
[2] = Experiment 6-1: screening of rhamnosidases for derhamnosylation of saponins in treated bark extract (2%), desglucosyl-QS-17 2134 to QS-21 1988 (PAR %); settings: TBE 2%, pH 7.5, 30 degC, 18 h; TIC peak area ratio percent, LCMS/MS; negative controls 2.719, 2.158
[3] = Experiment 6-1: screening of rhamnosidases for derhamnosylation of saponins in treated bark extract (2%), QS-17 2310 to QS-18 2164 (PAR %); settings: TBE 2%, pH 7.5, 30 degC, 18 h; TIC peak area ratio percent, LCMS/MS; negative controls 3.061, 2.429
[4] = Experiment 6-1: specificity of rhamnosidases towards other rhamnose residues (C3 saccharide rhamnose, C28 saccharide rhamnose); settings: TBE 2%, pH 7.5, 30 degC, 18 h; LCMS/MS; negative controls 0.18, 0.17

Molecule | QS-17 (PAR %) [1] | Peak75 (PAR %) [2] | Peak57 (PAR %) [3] | ratio PP/QS-21 [4]
1059 (protein, listed as Solibacter usitatus) MVEMSVPVLRSSAFIALLAGLALGADPANITELQRGFQHPPDEARIMVRWWWFGPAVTKPELEREMRLMKQGGIGGFEVQPTYALELDNAEKGIKNLPYMSPEFLEALRFTGEKAKELGLRMDLTLGSGWPFGGPHIPVELASPRLRVARAAVTAGAAAINVPELQPSEKLIAAFLGNQELEAAGSQSFRLPPSAAGQVTFFISSHTRQTVKRPAVGAEGWVLNHYDRAAIEQHFKSVGEPMLNALAKTPPAAIFSDSLEVYNSDWTGDFLAQFAKRRGYDLKPYLPALAGDIGEKTGAIRNDWGQTLSELAEENYLKPLTAWAHQHNTKFRSQTYGIPPVTLSSYSLVDLPEGEGTQWRHFSSTRWATSASHLYNRPVTSSETWTWLHSPVFRATPLDMKAEADLHFLQGVNQLVAHGWPYSPPSVGEPGWRFYAAAVFNEHNPWWIVMPDIATYMQRVSWMLRQGKPVNDVAVYLPTHDAFAGFTLGRDSVNQAMEGILGPKLVPTILDAGYGFDFIDDGAIAAGGVPHKILIVPGAERIPLATYQKIEEYRRDGGKVFFTKRLPSLAPGLREEGDTAKIRELSAKHVVTGDDGLAGALHDALPADFTAPPEIGVVHRKLAYADVYFLANTSNHAVKGAAKFRASGMPAAWWDPVTGKSSKADLNLELAPYESRVLVFSRAGGAVMGQAMSLPEVDISSDWTITFPGEQPVKMATLRPWTDEENRKFYSGTATYERKVTATPAMAAAHVFLNFGEGTVADPASERRAPSGMRAWLESPVREAAQVFVNGKPAGAVWKAPYEVDVTGLLQAGENSIRVVVANLALNVLAKGPLPDYKELTAKYGEKFQAQDMQSVRALPGGMMGPVKLVSK | 4.613% | 2.534% | 2.956% | 0.16
1071 (protein, listed as Opitutus terrae) MKRMKIMKRRIDIFRSSLFLGAYPAMAAPFVQRSAWIWSAEGTHAAPAPESASPSHYQVRLFRRVFLLENGGREGRIAVSADSRYVLYCNGALIGRGPARGDVHHQFYDTYELAPYLHRGANVLAALVLDMSHVAHRPAALGAPGGVMTYAGGFLLEGGVVDLNDRMEILDTGAAGWKVTVDRSYRFQNDGTRFEGYHGYFEHRVSAEAPADWTAASFDDSAWPDATVLYRAERLENRRDPASPYGLVARMIPPMEVGRVARFAAGVLPGGGKPGAEWKRLAAGKGAVTIPARSTVRIILDAGRMTTAYPLVQTDGGPGAHIRLTYAEALRLPWSTVGARMLGRPQSLANLASHFADESSGWTFDARGHVTGWSDRWEPAGRPREVFEPWHWRSFRFVELEIVTAEEPMELTDLGYRFTAYPYRVEAEFACSDPRLERIWQTALHTMRLCSHETFVDCPHYEQMQYAGDTMITSKLAMLSTGDYALSRQALLQFDWSRIPDGLTQSRYPSRLLQVIPSWSLHWITSIRDYACCSGDLQTVNEVLPGVRVVLDWYRRHADPSGLPSRLPYWNITDWCSWWPRGVVPGADEGPTCIISAQFVQALAEAADLHGWVGQRHEQRRLATEVKTLRGVLRRRFWSRDEGLFFDKPGGPEVSQYGNAWAIVCGAATAADRKRMLARFPADPLLAPGSFFCWHAVFRALEAAGAYDRLPEFLGPWHEMVEAGLDTFVEENSYWRSLCHAWSAHPALEFLAGVLGVKALEPGFATVRVTPHRCGLREARGQVCTPRGPITVAWTWEKGRFRIRVTAPRELQVEIGLPDGSDHRMTHGRFETEVVIHEA | 4.587% | 2.574% | 2.650% | 0.17
1067 (protein, listed as Pedobacter heparinus) MKLIPNFLKTSMQQTVLLLLLALVCCADTVLAQQSGKASWIWYPGDLDIWVSNKMQNRRTERGAFLPPFWKMDSHYVLVEFHKEFNLANAEEVNLYVEGQYNVKIDGQAFSGYPKKITVPAGKHKLSLKVYGQDKVPAILVQGKTVVSDESWLATFEDKEWIDASGKASDKSGTTFVSAASWNLTDPLSPPSRFKLATTPMAAVKTDKVNNGFVADFGKETFGFIKLHGLKGKGKLHIYYGESKEEALSADHCETLDLLEIDLKGKQDSVIELSKAFRYVNCQPEGNVTLDKVSMLYEYAPVTEKGNFRCSDEQINKIYDISKYTFHLNTREFFIDGIKRDRWVWSGDAYQSYLMNYYSFNESPIVKRTLLAQRGKDPVTAHINTIMDYSFYWFLGIYDYYQYSGDQKFVQDIYPRMKSLMDYVLGRRNKDGLLEWMPGDWIFIDWADKLSKDGEVSFEQLLFCRSLETMALCADMAKDTEAAANYKKLAADLKARIFKLYWDENKHALVHSRINGKPTDNVTRYANMFGIFFDYFSPSQKQEVKQHVLMNNKINKITTPYMRFYELEALCAMGEQSYVLKQMKDYWGGMLELGATSFWEEYNRDKKGVEHLAMYGRPFGKSLCHAWGASPIYLLGKYYLGVKPLSAGYETYVVEPSLGGLEWMEGKVPTPSGEISLYCSKKEIRIKADEGSGVLRFKSVSKPVVKGGKVVEVGKRTYELKLMKGVQYTVNYQK | 4.455% | 2.231% | 2.852% | 0.17
1033 (protein, listed as Pedobacter heparinus) MNRRTFIQNTSIATSSLVFFNQFESLAFSKSDQDLYTLFKNPPANYRPFVRWWWNGNKIQKKELFRQLTLLKDAGIGGVEINPISFPNKADDMGIKSLRWLSDEWIDLVKDTCNEARSKDMTCDLIVGSGWPFGSEDLKEEERAEVVLVFAEKVEGPMVYETTKYSIYNAIDPQVTDKNPLRSPILMDLKLSQDPIAAIATTIDFSNQINNDIIKIDVPEGKHCIYALVKFKSFAKVINGAPGASGSILNHLNKQAVESYLNRMSSTMQDRIGPLSNYLRALFTDSMELEGCNWCEDFPAEFKKRCGYDLMPYLPFILFKVGRLGAVVDEDYGAEKSQDLNVILKKVRFDFEYTKALLLRERFTEVYLKWCKELKVKSRAQAYGRGFFPLETSLGYDIPEGESWTTNYLRHKLGEEMSDEDYRRGRGYTMINKYVSSAAHLTGKRIVSCEEMTNTYLVFNATLELLKLGSDQSIMSGITHSVWHGFNYSPKEVAFPGWVQYGSYYSEKNNWWPYFKYLNDYKARLSSQLQHGDYYTDIAILPANYDLWANNGVQTDPFPEKLNVPYTSLLWEAINKNGGAADYITDMILTQSEIIKGKIVYGKKSFGVLFLPGVESLSELAMQKIEQFVKTGGKVICIEKYPAKGLGFLNWEQKDATIKDAVARLKQQFSDRFIFLDKPADNKFLEWYTPLIATHQLPSYLNISTPNRYFMQIRSVRDDGTEMFFFQNAHRYDAYQARVVFDRKKIKGKYAWVWDLDSGERFRLTLTNDTTFEYNFGPTESLLIIFDQIKNGEKWKPLLSSGKSTLNLDKVWDLELRNSLDGSVKHVNLPQVIDMKDDKELVNFTGTAIYRKKITLTDTKNLVINLGKVYGITQLYINKVQVGIKWYGKRFFDISKYVQTGTNDIEIHLVTTMGNYMKTLTDNEIAQYWVNRKGREQEIQSMGIVGPIEIYQQN | 4.485% | 2.521% | 2.927% | 0.16
